This is an account of results in patent US20050014931A1 (ABGENIX, published 2005).

The assay has as its target BSA (UniProt P02769 25-607). Description: ELISA screen of hybridoma supernatants. (In general: In an ELISA, binding on a coated surface is turned into a signal by an enzyme label.)

Chain of BSA (P02769 25-607 limits assumed): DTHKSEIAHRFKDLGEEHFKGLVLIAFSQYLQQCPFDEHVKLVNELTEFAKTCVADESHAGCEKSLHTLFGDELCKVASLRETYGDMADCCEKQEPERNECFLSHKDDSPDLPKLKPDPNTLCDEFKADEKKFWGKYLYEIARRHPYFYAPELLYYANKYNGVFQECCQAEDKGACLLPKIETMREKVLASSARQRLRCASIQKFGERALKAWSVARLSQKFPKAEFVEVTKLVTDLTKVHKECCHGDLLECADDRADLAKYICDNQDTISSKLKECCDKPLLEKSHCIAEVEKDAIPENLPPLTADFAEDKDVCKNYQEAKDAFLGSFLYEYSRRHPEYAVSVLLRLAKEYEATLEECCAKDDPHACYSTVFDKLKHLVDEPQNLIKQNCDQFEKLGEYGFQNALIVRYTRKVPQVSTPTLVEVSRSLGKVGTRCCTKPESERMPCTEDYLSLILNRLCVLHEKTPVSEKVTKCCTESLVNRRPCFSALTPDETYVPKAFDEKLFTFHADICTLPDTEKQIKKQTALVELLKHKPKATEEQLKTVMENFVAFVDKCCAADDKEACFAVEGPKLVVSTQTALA

B1: Mab 1A2 (antibody, V domains shown)
VH: not shown
VL: DIELTQSPDFQSVTPKEKVTITCRASQSIGSSLHWYQQKPDQSPKLLIKYASQSFSGVPSRFSGSGSGTDFTLTINSLEAEDAATYYCHQSSSLPRTFGQGTKVEIKR
For the molecule B1, the binding result is recorded as “no binding”.

B2: Mab 1F10/7C5 (antibody, V domains shown)
VH: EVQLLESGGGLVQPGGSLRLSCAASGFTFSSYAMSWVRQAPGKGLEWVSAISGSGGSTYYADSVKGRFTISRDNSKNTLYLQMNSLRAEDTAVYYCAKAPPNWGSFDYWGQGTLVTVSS
VL: DIELTQSPLSLPVTLGQPASISCRSSQSLVYSDGNTYLNWFQQRPGQSPRRLIYKVSNWDSGVPDRFSGSGSGTDFTLKISRVEAEDVGVYYCMQGTHWPRTFGQGTKVEIKR
notes: also called Mab 7C5
B2: the binding result is “no binding”.
